To fix the notation:
B1: CPEB3 Ribozyme (parent)
chain: GGGGGCCACAGCAGAAGCGUUCACGUCGCGGCCCCUGUCAGAUUCUGGUGAAUCUGCGAAUUCUGCUGU

Variants of B1 are the subject of this data set. Kind of data set: self-cleavage, relative activity (ratio to wild type); higher = more cleavage; co-transcriptional.
For the variant GGGGGCCACAGCAGAAGCGUCCACGUCGCGGCCCCUGUCAGAUUCUGGUGAAUCUGCGAAUCCUGCUGU, the self-cleavage amounted to 0.516.

On to GGGGGCCACAGCAGAAGCGUCCACGUCGCGGCCCCUGUCAGAUUCUGGUGAAUCUGCGAAUGCUGCUGU, for which the self-cleavage came out at 0.614.

In the case of GGGGGCCACAGCAGAAGCGUCCACGUCGCGGCCCCUGUCAGAUUCUGGUGAAUCUGCGAAUUCUGCUGC, the self-cleavage was 1.05.

As for GGGGGCCACAGCAGAAGCGUGCACGUCGCGGCCCCUGUCAGUUUCUGGUGAAUCUGCGAAUUCUGCUGU, the self-cleavage came out at 0.503.

On to GGGGGCCACAGCAGAAGCGUGCACGUCGCGGCCCCUGUCAGCUUCUGGUGAAUCUGCGAAUUCUGCUGU, for which the self-cleavage worked out at 0.303.

On to GGGGGCCACAGCAGAAGCGUGCACGUCGCGGCCCCUGUCAGAUUCUGGUGAUUCUGCGAAUUCUGCUGU, for which the self-cleavage was 0.608.

On to GGGGGCCACAGCAGAAGCGUGCACGUCGCGGCCCCUGUCAGAUUCUGGUGAGUCUGCGAAUUCUGCUGU, for which the self-cleavage was found to be 0.615.

With GGGGGCCACAGCAGAAGCGUGCCCGUCGCGGCCCCUGUCAGAUUCUGGUGAAUCUGCGAAUUCUGCUGU, the self-cleavage was determined as 0.379.

In the case of GGGGGCCACAGCAGAAGCGUGCUCGUCGCGGCCCCUGUCAGAUUCUGGUGAAUCUGCGAAUUCUGCUGU, the self-cleavage was 0.483.

In the case of GGGGGCCACAGCAGAAGCGUGCACGUCGCGGCCACUGUCAGAUUCUGGUGAAUCUGCGAAUUCUGCUGU, the self-cleavage worked out at 0.218.

GGGGGCCACAGCAGAAGCGUGCACGUCGCGGCCCCUGUCUGAUUCUGGUGAAUCUGCGAAUUCUGCUGU: the self-cleavage came out at 0.317.

For the variant GGGGGCCACAGCAGAAGCGUGCACGUCGCGGCCCCUGUCGGAUUCUGGUGAAUCUGCGAAUUCUGCUGU, the self-cleavage was found to be 0.463.

On to GGGGGCCACAGCAGAAGCGUGCACGUCGCGGCCCCUGUCAGAUUCUGGUGAAUCUGAGAAUUCUGCUGU, for which the self-cleavage was determined as 0.22.

For GGGGGCCACAGCAGAAGCGUCCACGUCGCGGCCCCUGUCAGAUUCUGGUUAAUCUGCGAAUUCUGCUGU, the self-cleavage is 0.878.

As to GGGGGCCACAGCAGAAGCGUCCACGUCGCGGCCCCUGUCAGAUUCUGGUCAAUCUGCGAAUUCUGCUGU, the self-cleavage worked out at 0.849.

For GGGGGCCACAGCAGAAGCGUCCACGUCGCGGCCCCUGUCAGAUUCUGGUAAAUCUGCGAAUUCUGCUGU, the self-cleavage worked out at 0.949.

GGGGGCCACAGCAGAAGCGUCCACGUCGCGGCCCCUGUCAGAGUCUGGUGAAUCUGCGAAUUCUGCUGU: the self-cleavage was 0.682.

On to GGGGGCCACAGCAGAAGCGUCCACGUCGCGGCCCCUGUCAGAAUCUGGUGAAUCUGCGAAUUCUGCUGU, for which the self-cleavage turned out to be 0.771.

In the case of GGGGGCCACAGCAGAAGCGUGCAUGUCGCGGCCCCUGUCAGAUUCUGGUGAAUCUGCGAAUUCUGCUGU, the self-cleavage came to 0.103.

Take GGGGGCCACAGCAGAAGCGUGCAAGUCGCGGCCCCUGUCAGAUUCUGGUGAAUCUGCGAAUUCUGCUGU: the self-cleavage turned out to be 0.106.

For the variant GGGGGCCACAGCAGAAGCGUCCACGUCGCGGCCCCUGUCAGAUUCUCGUGAAUCUGCGAAUUCUGCUGU, the self-cleavage is 0.915.

Take GGGGGCCACAGCAGAAGCGUCCACGUCGCGGCCCCUGUCAGAUUCUUGUGAAUCUGCGAAUUCUGCUGU: the self-cleavage was determined as 0.978.

Consider GGGGGCCACAGCAGAAGCGUCCACGUCGCGGCCCCUGUCAGAUUCUGGUGAAUCUGCGAAUUCGGCUGU, for which the self-cleavage turned out to be 0.75.

Consider GGGGGCCACAGCAGAAGCGUCCACGUCGCGGCCCCUGUCAGAUUCUGGUGAAUCUGCGAAUUCCGCUGU, for which the self-cleavage came out at 0.609.

GGGGGCCACAGCAGAAGCGUGUACGUCGCGGCCCCUGUCAGAUUCUGGUGAAUCUGCGAAUUCUGCUGU: the self-cleavage stood at 0.181.

As to GGGGGCCACAGCAGAAGCGUGAACGUCGCGGCCCCUGUCAGAUUCUGGUGAAUCUGCGAAUUCUGCUGU, the self-cleavage was determined as 0.2.

Consider GGGGGCCACAGCAGAAGCGUGGACGUCGCGGCCCCUGUCAGAUUCUGGUGAAUCUGCGAAUUCUGCUGU, for which the self-cleavage is 0.227.

Regarding GGGGGCCACAGCAGAAGCGUGCACGUGGCGGCCCCUGUCAGAUUCUGGUGAAUCUGCGAAUUCUGCUGU, the self-cleavage stood at 0.227.

Regarding GGGGGCCACAGCAGAAGCGUCCACGUCGCGGCCCCUGUCAGAUUCUGGUGAAUCUGCGAAUUCUGCCGU, the self-cleavage was 0.898.

In the case of GGGGGCCACAGCAGAAGCGUCCACGUCGCGGCCCCUGUCAGAUUCUGGUGAAUCUGCGAAUUCUGCAGU, the self-cleavage came out at 0.921.

Regarding GGGGGCCACAGCAGAAGCGUCCACGUCGCGGCCCCUGACAGAUUCUGGUGAAUCUGCGAAUUCUGCUGU, the self-cleavage was 0.171.

GGGGGCCACAGCAGAAGCGUCCACGUCGCGGCCCCUGCCAGAUUCUGGUGAAUCUGCGAAUUCUGCUGU: the self-cleavage was 0.808.

On to GGGGGCCACAGCAGAAGCGUCCACGUCGCGGCCCCUGGCAGAUUCUGGUGAAUCUGCGAAUUCUGCUGU, for which the self-cleavage amounted to 0.432.

With GGGGGCCACAGCAGAAGCGUGCACGUCGCGGCCCCUGUCAGAUUCUGGUGAAUGUGCGAAUUCUGCUGU, the self-cleavage was 0.423.

As to GGGGGCCACAGCAGAAGCGUGCACGUCGCGGCCCCUGUCAGAUUCUGGUGAAUUUGCGAAUUCUGCUGU, the self-cleavage was 0.591.

Regarding GGGGGCCACAGCAGAAGCGUCCACGUCGCGGCCCCUGUCAGAUUCUGGUGAAUCCGCGAAUUCUGCUGU, the self-cleavage was found to be 0.611.

In the case of GGGGGCCACAGCAGAAGCGUCCACGUCGCGGCCCCUGUCAGAUUCUGGUGAAUCUGCGAACUCUGCUGU, the self-cleavage stood at 0.572.

GGGGGCCACAGCAGAAGCGUCCACGUCGCGGCCCCUGUCAGAUUCUGGUGAAUCUGCGAAGUCUGCUGU: the self-cleavage is 0.7.

As for GGGGGCCACAGCAGAAGCGUGCACGUCGCGGCCCCUGUGAGAUUCUGGUGAAUCUGCGAAUUCUGCUGU, the self-cleavage was determined as 0.865.

Consider GGGGGCCACAGCAGAAGCGUGCACGUCGCGGCCCAUGUCAGAUUCUGGUGAAUCUGCGAAUUCUGCUGU, for which the self-cleavage amounted to 0.13.

Turning to GGGGGCCACAGCAGAAGCGUCCACGGCGCGGCCCCUGUCAGAUUCUGGUGAAUCUGCGAAUUCUGCUGU, the self-cleavage came out at 0.459.

Regarding GGGGGCCACAGCAGAAGCGUCCACGCCGCGGCCCCUGUCAGAUUCUGGUGAAUCUGCGAAUUCUGCUGU, the self-cleavage was 0.805.

On to GGGGGCCACAGCAGAAGCGUCCACGUCGCGGCCCCUGUCAGAUUCUGGUGAAUCUGCGAAUUCUGCUAU, for which the self-cleavage came to 1.

Take GGGGGCCACAGCAGAAGCGUCCACGUCGCGGCCCCUGUCAGAUUCUGGAGAAUCUGCGAAUUCUGCUGU: the self-cleavage worked out at 0.847.

As for GGGGGCCACAGCAGAAGCGUCCACGUCGCGGCCCCUGUCAGAUUCUGGCGAAUCUGCGAAUUCUGCUGU, the self-cleavage was 0.868.

For the variant GGGGGCCACAGCAGAAGCGUCCACGUCGCGGCCCCUGUCAGAUUCUGGGGAAUCUGCGAAUUCUGCUGU, the self-cleavage stood at 0.927.

Consider GGGGGCCACAGCAGAAGCGUCCACGUCGCGGCCCCUGUCAGAUUCAGGUGAAUCUGCGAAUUCUGCUGU, for which the self-cleavage turned out to be 0.88.

In the case of GGGGGCCACAGCAGAAGCGUCCACGUCGCGGCCCCUGUCAGAUUCGGGUGAAUCUGCGAAUUCUGCUGU, the self-cleavage turned out to be 0.991.

As to GGGGGCCACAGCAGAAGCGUCCACGUCGCGGCCCCUGUCAGAUUCUGGUGAAUCUGCUAAUUCUGCUGU, the self-cleavage was determined as 0.952.

Turning to GGGGGCCACAGCAGAAGCGUCCACGUCGCGGCCCCUGUCAGAUUCUGGUGAAUCUGCCAAUUCUGCUGU, the self-cleavage came out at 0.826.

On to GGGGGCCACAGCAGAAGCGUCCACGUCGCGGCCCCUGUCAGAUUCUGGUGAAUCUGCAAAUUCUGCUGU, for which the self-cleavage came out at 0.673.

Take GGGGGCCACAGCAGAAGCGUGCACGUCGCGGCCCCUGUCAGAUUCUGGUGAAUCUGCGAGUUCUGCUGU: the self-cleavage is 0.251.

In the case of GGGGGCCACAGCAGAAGCGUGCACGUCGCGGCCCCUGUCAGAUUCUGGUGAAUCUGCGAUUUCUGCUGU, the self-cleavage came to 0.295.

As to GGGGGCCACAGCAGAAGCGUGCACGUCGCGGCCCCUGUCAGAUUCUGGUGAAUCUGCGAAUUCUGCUGU, the self-cleavage was found to be 0.644.

For GGGGGCCACAGCAGAAGCGUGCACGUCGCGGCCCCUGUCAGAUUCUGGUGGAUCUGCGAAUUCUGCUGU, the self-cleavage worked out at 0.54.

As to GGGGGCCACAGCAGAAGCGUGCACGUCGCGGCCCCUGUCAGAUUCUGGUGCAUCUGCGAAUUCUGCUGU, the self-cleavage came to 0.509.

Regarding GGGGGCCACAGCAGAAGCGUGCACGUCGCGGCCCCUGUCAGAUUCUGGUGUAUCUGCGAAUUCUGCUGU, the self-cleavage amounted to 0.497.

For the variant GGGGGCCACAGCAGAAGCGUGCACGUCGCGGCUCCUGUCAGAUUCUGGUGAAUCUGCGAAUUCUGCUGU, the self-cleavage stood at 0.575.

As for GGGGGCCACAGCAGAAGCGUGCACGUCGCGGCACCUGUCAGAUUCUGGUGAAUCUGCGAAUUCUGCUGU, the self-cleavage worked out at 0.163.

For GGGGGCCACAGCAGAAGCGUGCACGUCGCGGCGCCUGUCAGAUUCUGGUGAAUCUGCGAAUUCUGCUGU, the self-cleavage was 0.215.

On to GGGGGCCACAGCAGAAGCGUGCACGUCGGGGCCCCUGUCAGAUUCUGGUGAAUCUGCGAAUUCUGCUGU, for which the self-cleavage came out at 0.158.

On to GGGGGCCACAGCAGAAGCGUGCACGUCGUGGCCCCUGUCAGAUUCUGGUGAAUCUGCGAAUUCUGCUGU, for which the self-cleavage came to 0.166.

In the case of GGGGGCCACAGCAGAAGCGUCCACGUCGCGGCCCCUGUCAGAUUCUGGUGAACCUGCGAAUUCUGCUGU, the self-cleavage is 0.726.

With GGGGGCCACAGCAGAAGCGUCCACGUCGCGGCCCCUGUCAGAUUCUGGUGAAACUGCGAAUUCUGCUGU, the self-cleavage was found to be 0.765.

GGGGGCCACAGCAGAAGCGUCCACGUCGCGGCCCCUGUCAGAUUCUGGUGAAUCUGCGAAUUCUACUGU: the self-cleavage stood at 0.671.

Take GGGGGCCACAGCAGAAGCGUCCACGUCGCGGCCCCUGUCAGAUUCUGGUGAAUCUGCGAAUUCUCCUGU: the self-cleavage was 0.393.

With GGGGGCCACAGCAGAAGCGUCCACGUCGCGGCCCCUGUCAGAUUCUGGUGAAUCUGCGAAUUCUUCUGU, the self-cleavage is 0.488.

As to GGGGGCCACAGCAGAAGCGUGCACGUCGCGGCCCCUGUCAGAUUCUGGUGAAUCUGCGCAUUCUGCUGU, the self-cleavage stood at 0.223.

For the variant GGGGGCCACAGCAGAAGCGUGCACGUCGCGGACCCUGUCAGAUUCUGGUGAAUCUGCGAAUUCUGCUGU, the self-cleavage was 0.246.

For GGGGGCCACAGCAGAAGCGUGCACGUCGCGGGCCCUGUCAGAUUCUGGUGAAUCUGCGAAUUCUGCUGU, the self-cleavage worked out at 0.189.

For the variant GGGGGCCACAGCAGAAGCGUGCACGUCGCGGUCCCUGUCAGAUUCUGGUGAAUCUGCGAAUUCUGCUGU, the self-cleavage turned out to be 0.609.

GGGGGCCACAGCAGAAGCGUCCACGUCGCGGCCCCUGUCAGAUUCUGGUGAAUCUUCGAAUUCUGCUGU: the self-cleavage worked out at 0.693.

GGGGGCCACAGCAGAAGCGUCCACGUCGCGGCCCCUGUCAGAUUCUGGUGAAUCUACGAAUUCUGCUGU: the self-cleavage came to 0.657.

Consider GGGGGCCACAGCAGAAGCGUCCACGUCGCGGCCCCGGUCAGAUUCUGGUGAAUCUGCGAAUUCUGCUGU, for which the self-cleavage was 0.286.

With GGGGGCCACAGCAGAAGCGUCCACGUCGCGGCCCCCGUCAGAUUCUGGUGAAUCUGCGAAUUCUGCUGU, the self-cleavage amounted to 0.479.

GGGGGCCACAGCAGAAGCGUCCACGUCGCGGCCCCAGUCAGAUUCUGGUGAAUCUGCGAAUUCUGCUGU: the self-cleavage was 0.0993.

For the variant GGGGGCCACAGCAGAAGCGUCCACGUCGCGGCCCCUGUCAGAUUCUGUUGAAUCUGCGAAUUCUGCUGU, the self-cleavage worked out at 0.901.

As to GGGGGCCACAGCAGAAGCGUCCACGUCGCGGCCCCUGUCAGAUUCUGCUGAAUCUGCGAAUUCUGCUGU, the self-cleavage was found to be 0.967.

For the origin of these results see the RNAGym collection of RNA variant scans (doi:10.7554/elife.80360).
